# Test results taken from doi:10.1101/2021.10.22.465432 (bioRxiv, 2021).
# T1: Drosha (mouse (endogenous in N2A), UniProt Q5HZJ0 1-1373)
# T1 sequence: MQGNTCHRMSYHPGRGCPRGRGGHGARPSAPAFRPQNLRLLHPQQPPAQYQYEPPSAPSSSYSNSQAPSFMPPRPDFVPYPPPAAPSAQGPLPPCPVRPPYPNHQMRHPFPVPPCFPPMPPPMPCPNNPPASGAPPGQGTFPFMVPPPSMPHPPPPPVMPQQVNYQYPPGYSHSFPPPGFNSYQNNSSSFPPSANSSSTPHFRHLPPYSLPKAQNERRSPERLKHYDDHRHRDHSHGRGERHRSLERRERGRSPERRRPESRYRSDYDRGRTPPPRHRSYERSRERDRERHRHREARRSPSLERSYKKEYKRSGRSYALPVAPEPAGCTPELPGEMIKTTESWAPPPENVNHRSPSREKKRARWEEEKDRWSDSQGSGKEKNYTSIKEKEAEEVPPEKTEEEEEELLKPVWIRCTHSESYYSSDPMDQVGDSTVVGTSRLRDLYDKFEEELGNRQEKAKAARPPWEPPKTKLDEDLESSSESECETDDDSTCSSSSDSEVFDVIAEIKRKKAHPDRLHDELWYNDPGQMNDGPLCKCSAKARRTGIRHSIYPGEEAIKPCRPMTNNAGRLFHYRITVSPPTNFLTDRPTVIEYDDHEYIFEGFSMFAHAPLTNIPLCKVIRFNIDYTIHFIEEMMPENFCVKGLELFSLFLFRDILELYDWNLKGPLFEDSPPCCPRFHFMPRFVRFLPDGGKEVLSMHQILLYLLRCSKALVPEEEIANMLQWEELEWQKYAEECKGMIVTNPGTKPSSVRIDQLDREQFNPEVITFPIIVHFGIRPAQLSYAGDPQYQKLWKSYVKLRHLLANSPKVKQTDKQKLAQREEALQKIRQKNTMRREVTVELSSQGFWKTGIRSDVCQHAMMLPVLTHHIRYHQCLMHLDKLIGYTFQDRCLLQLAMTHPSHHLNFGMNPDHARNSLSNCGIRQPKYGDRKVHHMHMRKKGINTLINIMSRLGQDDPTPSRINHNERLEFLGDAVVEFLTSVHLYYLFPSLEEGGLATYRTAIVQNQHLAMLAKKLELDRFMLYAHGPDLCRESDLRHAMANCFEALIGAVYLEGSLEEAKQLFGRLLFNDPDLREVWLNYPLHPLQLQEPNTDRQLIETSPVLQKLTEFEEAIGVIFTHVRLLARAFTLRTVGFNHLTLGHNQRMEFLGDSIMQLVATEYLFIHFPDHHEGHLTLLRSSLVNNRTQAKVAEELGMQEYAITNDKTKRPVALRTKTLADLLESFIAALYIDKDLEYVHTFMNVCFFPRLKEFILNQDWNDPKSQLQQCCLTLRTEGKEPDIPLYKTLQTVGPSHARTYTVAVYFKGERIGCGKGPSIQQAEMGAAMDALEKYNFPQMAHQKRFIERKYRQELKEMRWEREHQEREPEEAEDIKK
# Biological target: T1, Drosha
# Assay: co-IP
binder,measurement,value
Safb1-ΔRE-HA (natural protein) MAETLSGLGDASAAGAAAVSSAASETGTRRLSDLRVIDLRAELKKRNLDSSGNKSVLMERLKKAIEDEGGNPDEIEVTSECNKKMPKRPSKGRKPEDEGVEDNGLEENSGDGQEDVETSLENLQDMDMMDISVLDEADIDNGSVADCVEEEEEATLPEGLADSTELVEGDLKGLPEQLQEHAIDDKDTVNNVDTSSSDFTMLQEMEEASLEPENEKILDILGETCKSEPVKEEGSELEQPFAQATSSVGPDRKLAEEEDLFESCGHPEEEEEEEEEDQEEEQEEEGDLALASSSKSESPSTRCQWSEADAPLAVVKREPADAPGGGTGMDREPVGLEEPVEQSSTAAQLPEATSQELVRAPTAALSPEPQDSKEDVKKFAFDACNDVPAPPKESSASEGADQKMSSVEEDSDTKRLSREEKGRSSCGRNFWVSGLSSTTRATDLKNLFSRYGKVVGAKVVTNARSPGARCYGFVTMSTAEEATKCISHLHKTELHGKMISVEKAKSEPTGKRVPDRRDGDSKKEKASTSDRSANLKREEKGERKDDAKKTDHREREELRRQQELRYEQERRPAVRRPYEVDGRRDDAYWPEAKRAALDDRYHSDFSRQDRFHDFDHRDRGRYPNHSVDRREGSRSMMGDREGQHYPERHGGPERHGRDSRDGWGYGSNKRLSEGRGLPPPPRRDWGEHGRRLEDDRAWQGTADGGMMERDHKRWQGGERSMSGHSGPGHMMNRGGMSGRGSFAPGGASRGHVIPRGGMQAGFGGQSRGSRPSDARFTRRY,fold reduction in binding against Safb1 wild type,5.7 fold
